In assay [1] the target is T1, human GLP-1 receptor (human, UniProt P43220 24-463).
T1 construct: whole, on cells; also called hGLP-1
Put plainly: SPA displacement of [125I]-GLP-1(7-36)NH2 from human GLP-1 receptor membranes, low albumin (0.005% HSA). Here is the method:
(§1) 25 ul (microliter) of test compounds are added to Optiplate. HSA ("high albumin" experiment containing 2% HSA), or buffer ("low albumin" experiment containing 0.005% HSA), was added (50 ul). 5-10 ug protein/sample was added (50 ul) corresponding to 0.1-0.2 mg protein/ml (to be preferably optimised for each membrane preparation). SPA-particles (Wheatgerm agglutinin SPA beads, Perkin Elmer, #RPNQ0001) were added in an amount of 0.5 mg/well (50 ul). […] The plates were sealed with PlateSealer and incubated for 120 minutes at 30° C. while shaking. The plates were centrifuged (1500 rpm, 10 min) and counted in Topcounter.
On the technique in general: In a radioligand displacement assay an active substance lowers the binding of a labelled ligand.

For assay [2], the target named is T1, human GLP-1 receptor. Kind of assay: SPA displacement of [125I]-GLP-1(7-36)NH2 from human GLP-1 receptor membranes; IC50 at 2.0% HSA divided by IC50 at 0.005% HSA. As to the method:
as §1

*1 amine or outer side, *2 acyl side, *3 side chain or, on linkers, in order; H or OH if unused. Where no end group is shown, it is not given here. Side-chain parts run from the residue outwards. [ ]: non-standard residue; d: D form. The star is where a group is joined. Dodecanoyl(12-OPh(4-COOH)) = O=C(O)c1ccc(OCCCCCCCCCCCC(=O)*)cc1; Decanoyl(10-(4-HOOC-PhO)) = O=C(O)c1ccc(OCCCCCCCCCC(=O)*)cc1; C18 diacid = O=C(O)CCCCCCCCCCCCCCCCC(=O)*; C16 diacid = O=C(O)CCCCCCCCCCCCCCC(=O)*; γGlu = O=C(O)[C@H](CCC(=O)[*:2])N[*:1]; Desaminohistidyl = O=C(CCc1c[nH]cn1)*; εLys = N[C@@H](CCCCN[*:1])C(=O)[*:2]; AEEA = NCCOCCOCC(=O)O; Aib = CC(C)(N)C(=O)O A value given as a limit tells only on which side of the number the result lay.

For the molecule “N^ε18-[(2S)-2-amino-6-[[(2S)-2-amino-6-[[(4S)-4-carboxy-4-[8-[10-(4-carboxyphenoxyl)decanoylamino]octanoylamino]butanoyl]amino]hexanoyl]amino]hexanoyl], N^ε26-[(2S)-2-amino-6-[[(2S)-2-amino-6-[[(4S)-4-carboxy-4-[8-[10-(4-carboxyphenoxyl)decanoylamino]octanoylamino]butanoyl]amino]hexanoyl]amino]hexanoyl]-[Aib^8,Lys^18,Glu^22,Gln^34] (SEQ ID NO: 9)-GLP-1-(7-37)-peptide”, the IC50 (as a rule, the concentration that gives 50% inhibition) in assay [1] is under 35 nM. The same measure, in the same setting: with “N^ε18-[(2S)-2-amino-6-[[(4S)-4-carboxy-4-(13-carboxytridecanoylamino)butanoyl]amino]hexanoyl], N^ε26-[(2S)-2-amino-6-[[(4S)-4-carboxy-4-(13-carboxytridecanoylamino)butanoyl]amino]hexanoyl]-[Lys^8,Glu^22,Gln^34] (SEQ ID NO: 11)-GLP-1-(7-37)-peptide” the figure was under 35 nM. The molecule “N^ε18-[(2S)-2-amino-6-[[2-[2-[2-[[(4S)-4-carboxy-4-(13-carboxytridecanoylamino)butanoyl]amino]ethoxy]ethoxy]acetyl]amino]hexanoyl], N^ε26-[(2S)-2-amino-6-[[2-[2-[2-[[(4S)-4-carboxy-4-(13-carboxytridecanoylamino)butanoyl]amino]ethoxy]ethoxy]acetyl]amino]hexanoyl]-[Lys^18,Glu^22,Gln^34] (SEQ ID NO: 11)-GLP-1-(7-37)-peptide” gave an IC50 in assay [1] of under 35 nM. In turn, “N^ε18-[(2S)-2-amino-6-[[(2S)-2-amino-6-[[(4S)-4-carboxy-4-[10-(4-carboxyphenoxyl)decanoylamino]butanoyl]amino]hexanoyl]amino]hexanoyl], N^ε26-[(2S)-2-amino-6-[[(2S)-2-amino-6-[[(4S)-4-carboxy-4-[10-(4-carboxyphenoxyl)decanoylamino]butanoyl]amino]hexanoyl]amino]hexanoyl]-[Aib^8,Lys^18,Glu^22,Gln^34] (SEQ ID NO: 9)-GLP-1-(7-37)-peptide” gave an IC50 in assay [1] of under 35 nM.

B1: N^ε18-[(2S)-2-amino-6-[[(2S)-2-amino-6-[[(4S)-4-carboxy-4-(15-carboxypentadecanoylamino)butanoyl]amino]hexanoyl]amino]hexanoyl], … (peptide)
peptide: H[Aib]EGTFTSDVSK([εLys-εLys-γGlu-C16 diacid])YLEGQAAK([εLys-εLys-γGlu-C16 diacid])EFIAWLVQGRG
notes: Double-acylated GLP-1 analogue; positions are counted with His as no
Molecule B1 gave an IC50 in assay [1] of under 35 nM. Also, the “ratio [(IC50/nM) high HSA]/[(IC50/nM) low HSA]” value (shortened to “ratio”) in assay [2] is over 10.

B2: N^ε18-[(2S)-2-amino-6-[[2-[2-[2-[[2-[2-[2-[[(4S)-4-carboxy-4-[12-(4-carboxyphenoxy)dodecanoylamino]butanoyl]amino]ethoxy]ethoxy]acetyl]amino]ethoxy]ethoxy]acety … (peptide)
peptide: H[Aib]EGTFTSDVSK([εLys-AEEA-AEEA-γGlu-Dodecanoyl(12-OPh(4-COOH))])YLEGQAAK([εLys-AEEA-AEEA-γGlu-Dodecanoyl(12-OPh(4-COOH))])EFIAWLVQGRG
notes: as for B1
Regarding B2, the IC50 in assay [1] was under 35 nM. Further, the “ratio” value in assay [2] was over 10.

B3: N^ε18-[(2S)-2-amino-6-[[2-[2-[2-[[(4S)-4-carboxy-4-(15-carboxypentadecanoylamino)butanoyl]amino]ethoxy]ethoxy]acetyl]amino]hexanoyl], … (peptide)
peptide: H[Aib]EGTFTSDVSK([εLys-AEEA-γGlu-C16 diacid])YLEGQAAK([εLys-AEEA-γGlu-C16 diacid])EFIAWLVQGRG
notes: as for B1
B3 yielded an IC50 in assay [1] of under 35 nM. Also, the “ratio” value in assay [2] is over 10.

B4: N^ε18-[(2S)-2-amino-6-[[(2S)-2-amino-6-[[(4S)-4-carboxy-4-[12-(4-carboxyphenoxy)dodecanoylamino]butanoyl]amino]hexanoyl]amino]hexanoyl], … (peptide)
peptide: H[Aib]EGTFTSDVSK([εLys-εLys-γGlu-Dodecanoyl(12-OPh(4-COOH))])YLEGQAAK([εLys-εLys-γGlu-Dodecanoyl(12-OPh(4-COOH))])EFIAWLVQGRG
notes: as for B1
B4 returned a half-maximal inhibitory concentration (IC50) in assay [1] of under 35 nM. For the same molecule, the “ratio” value in assay [2] was over 10.

B5: N^ε18-[(2S)-2-amino-6-[[2-[2-[2-(15-carboxypentadecanoylamino)ethoxy]ethoxy]acetyl]amino]hexanoyl], … (peptide)
peptide: H[Aib]EGTFTSDVSK([εLys-AEEA-C16 diacid])YLEGQAAK([εLys-AEEA-C16 diacid])EFIAWLVQGRG
notes: as for B1
Regarding B5, the IC50 in assay [1] was under 35 nM. Further, the “ratio” value in assay [2] was over 10.

B6: N^ε18-[2-[2-[2-[[(2S)-2-amino-6-[[2-[2-[2-[[(4S)-4-carboxy-4-[10-(4-carboxyphenoxyl)decanoylamino]butanoyl]amino]ethoxy]ethoxy]acetyl]amino]hexanoyl]amino]ethox … (peptide)
peptide: [Desaminohistidyl]AEGTFTSDVSK([AEEA-εLys-AEEA-γGlu-Decanoyl(10-(4-HOOC-PhO))])YLEEQAVREFIAK([AEEA-εLys-AEEA-γGlu-Decanoyl(10-(4-HOOC-PhO))])LVRGRG
notes: Double-acylated GLP-1 analogue; positions are counted with residue 1 of the entry as no
For B6, the concentration for half-maximal inhibition (IC50) in assay [1] was under 35 nM. Moreover, the “ratio” value in assay [2] was over 10.

B7: N^ε18-[(2S)-2-amino-6-[[(2S)-2-amino-6-[[(4S)-4-carboxy-4-[10-(4-carboxyphenoxyl)decanoylamino]butanoyl]amino]hexanoyl]amino]hexanoyl], … (peptide)
peptide: H[Aib]EGTFTSDVSK([εLys-εLys-γGlu-Decanoyl(10-(4-HOOC-PhO))])YLEGQAAK([εLys-εLys-γGlu-Decanoyl(10-(4-HOOC-PhO))])EFIAWLVQGRG
notes: as for B1
The molecule B7 had an IC50 in assay [1] of under 35 nM. Moreover, the “ratio” value in assay [2] was over 10.

B8: N^ε18-[(2S)-2-amino-6-[[(2S)-2-amino-6-[[(4S)-4-carboxy-4-[10-(4-carboxyphenoxyl)decanoylamino]butanoyl]amino]hexanoyl]amino]hexanoyl], … (peptide)
peptide: H[Aib]EGTFTSDVSK([εLys-εLys-γGlu-Decanoyl(10-(4-HOOC-PhO))])QLEEQAAK([εLys-εLys-γGlu-Decanoyl(10-(4-HOOC-PhO))])EFIAWLVQGRG
In assay [1], B8 had a concentration for half-maximal inhibition (IC50) of under 35 nM. For the same molecule, the “ratio” value in assay [2] is over 10.

B9: N^ε18-[2-[2-[2-[[(2S)-2-amino-6-[[2-[2-[2-[[(4S)-4-carboxy-4-[10-(4-carboxyphenoxyl)decanoylamino]butanoyl]amino]ethoxy]ethoxy]acetyl]amino]hexanoyl]amino]ethox … (peptide)
peptide: [Desaminohistidyl][Aib]EGTFTSDVSK([AEEA-εLys-AEEA-γGlu-Decanoyl(10-(4-HOOC-PhO))])YLEEQAAK([AEEA-εLys-AEEA-γGlu-Decanoyl(10-(4-HOOC-PhO))])EFIAWLVQGRG
notes: as for B6
As for B9, the IC50 in assay [1] is under 35 nM. Also, in assay [2], the “ratio” value was over 10.

B10: N^ε18-[(2S)-2-amino-6-[[(2S)-2-amino-6-[[(4S)-4-carboxy-4-(17-carboxyheptadecanoylamino)butanoyl]amino]hexanoyl]amino]hexanoyl], … (peptide)
peptide: H[Aib]EGTFTSDVSK([εLys-εLys-γGlu-C18 diacid])YLEGQAAK([εLys-εLys-γGlu-C18 diacid])EFIAWLVQGRG
notes: as for B1
Turning to B10, the concentration for half-maximal inhibition (IC50) in assay [1] is under 35 nM. Moreover, the “ratio” value in assay [2] is over 10.

B11: N^ε18-[(2S)-2-amino-6-[[(4S)-4-carboxy-4-(15-carboxypentadecanoylamino)butanoyl]amino]hexanoyl], … (peptide)
peptide: H[Aib]EGTFTSDVSK([εLys-γGlu-C16 diacid])YLEGQAAK([εLys-γGlu-C16 diacid])EFIAWLVQGRG
notes: as for B1
For the molecule B11, in assay [1], the IC50 is under 35 nM. Besides, the “ratio” value in assay [2] was over 10.
